Source: article PMC7005942

Target: HIV-1 integrase wild type (HIV-1) (UniProt P12497)
Experiment: filter binding
Details: Filter binding: 20 mM Tris-HCl pH 7.5, 200 mM NaCl, 6 mM MgCl2, 1 mM DTT, 0.1 mg/mL BSA, room temperature, 10 min

HIV-1 TAR (1-57) showed a Kd of over 5 µM.
